{"source": "patent US9371393B2", "about": "“Class I anti-CEA antibodies and uses thereof” (Immunomedics, Inc., priority 2009, dated 2016)", "key": {"CEA": {"biological_target": "T1, CEA (Homo sapiens, UniProt P06731)", "T1 sequence (P06731 35-676)": "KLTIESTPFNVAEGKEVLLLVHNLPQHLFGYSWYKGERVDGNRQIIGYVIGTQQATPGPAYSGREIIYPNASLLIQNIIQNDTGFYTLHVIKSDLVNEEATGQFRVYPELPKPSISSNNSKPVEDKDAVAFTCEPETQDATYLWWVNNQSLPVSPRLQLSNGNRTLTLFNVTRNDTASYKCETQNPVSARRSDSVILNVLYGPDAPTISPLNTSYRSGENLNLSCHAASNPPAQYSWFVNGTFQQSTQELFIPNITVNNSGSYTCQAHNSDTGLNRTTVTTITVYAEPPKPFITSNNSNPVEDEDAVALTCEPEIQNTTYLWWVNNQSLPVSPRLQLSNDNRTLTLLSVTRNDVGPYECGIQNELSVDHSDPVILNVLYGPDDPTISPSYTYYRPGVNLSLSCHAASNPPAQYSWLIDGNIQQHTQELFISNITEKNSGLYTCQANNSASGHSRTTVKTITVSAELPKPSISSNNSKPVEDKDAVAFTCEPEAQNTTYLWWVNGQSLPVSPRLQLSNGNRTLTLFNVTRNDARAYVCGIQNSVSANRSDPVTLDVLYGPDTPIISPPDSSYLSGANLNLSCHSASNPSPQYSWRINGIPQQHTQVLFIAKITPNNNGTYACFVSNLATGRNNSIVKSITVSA", "assay": "Competitive CEA binding against HRP-labeled murine MN-15", "conditions": "competition with HRP-labeled murine MN-15", "source_text": "To make a chimeric MN-15 antibody, the murine MN-15 variable region sequences were attached to human IgG1 constant region sequences, as described in Leung et al., Hybridoma 13:469 (1994). The sequences of the murine MN-15 VK (SEQ ID NO:9) and MN-15 VH (SEQ ID NO:10) used to construct the chimeric MN-15 (cMN-15) are shown in FIG. 2 and FIG. 3."}, "[1]": {"test_system": "CaPAN-1 adhesion to fibronectin", "assay": "Adhesion to extracellular matrix proteins assay, CaPAN-1", "assay_type": "cell-based, human", "protocol": "(§1) Adhesion to extracellular matrix proteins assay—The assay was done using the CYTOMATRIX™ screening kit from CHEMICON® (Kit #ECM205, Temecula, Calif.). The kit contains 96-well plates with strips coated with fibronectin, vitronectin, laminin, collagen-I, or collagen-IV. Subconfluent cell cultures were used for these studies. Cells (1×10^6 cells/mol) were seeded onto coated substrate and incubated at 37° C. for 1 hour in a CO2 incubator in PBS containing Ca^2+/Mg^2+ (200 μL per well). Adherent cells were fixed and stained. The plate was washed to remove unadhered cells and stained with 100 μL per well of MTS (Cell Titer Aq 96, PROMEGA®, Madison, Wis.) for 5 minutes at room temperature. Excess stain was removed with three PBS washes. Solubilization buffer [100 μL of a 50:50 mixture of 0.1 mol/L NaH2PO4 (pH 4.5) and 50% ethanol] was added to each well. Relative attachment was determined using absorbance readings (A540 nm-A570 nm)."}, "[2]": {"test_system": "MDA-468 adhesion to fibronectin", "assay": "Adhesion to extracellular matrix proteins assay, MDA-468", "assay_type": "cell-based, human", "protocol": "as §1"}, "ZR75-30 cells": {"test_system": "ZR75-30 cells", "assay": "Collagen-based invasion assay, ZR75-30", "assay_type": "cell-based, human", "conditions": "10% FBS chemoattractant, 72-hour incubation", "protocol": "(§2) Collagen-based invasion assay—The assay was done using CHEMICON® Kit (#ECM551, MILLIPORE®, Billerica, Mass.). Tumor cells at 80% confluence and were serum-starved for 18 to 24 hours before the assay was used. Cells were harvested with 5 mol of 2 mmol/L EDTA/PBS per 100-mm dish and incubated at 37° C. for 5 to 15 minutes. Cells were collected into 10 to 20 mol of quenching medium (serum-free DMEM containing 5% BSA) to inactivate trypsin/EDTA from the harvesting buffer. Cells were pelleted, resuspended in quenching medium (1×10^6 cells/mol), and appropriate antibody Fabs were added to individual cell aliquots. Cell invasion potential was determined as follows. Baseline invasion and invasion in the presence of a chemoattractant (10% FBS) were measured after a 72-hour incubation period at 37° C. in a 5% CO2 incubator. The bottom side of the collagen-coated polycarbonate membrane insert of the invasion chamber was placed in 400 μL of cell stain for 20 minutes at room temperature and washed. The dye was extracted and transferred into a 96-well microtiter plate for colorimetric measurements (A560 nm)."}, "[3]": {"test_system": "MCF-7 cells adhesion to HUVEC", "assay": "Endothelial cell adhesion assay, MCF-7", "assay_type": "cell-based, human", "protocol": "(§3) Endothelial cell adhesion assay—Human umbilical vein endothelial cells (HUVEC; Cambrex, San Diego, Calif.) were grown in collagen-coated dishes in EGM Media in a humidified atmosphere with 5% CO2 at 37° C. At passages 2 to 5, cells were plated at a density of 4×10^4 cells per well in 96-well plates 24 hours before the assay. Interleukin-1β (IL-1β, 1 ng/mol) was added 4 hours before the assay. At the start of the study, the medium with the IL-1β was removed and fresh DMEM with 1% bovine serum albumin (BSA) added and incubated for 30 minutes. Fresh medium without antibodies or with 10 μg/mol of MN-15 Fab′, MN-3 Fab′, or Ag8 Fab′ was added. Tumor cells (1×10^6 cells/mol) prelabeled overnight with ^3H-thymidine (100 μL per well using 1.0 μCi/mL) were added to HUVEC cultures and incubated for 30 minutes at 37° C. with rotation in medium with 20% FBS. Samples were washed thrice with PBS to remove unattached cells. Attached cells were solubilized with 0.1 N NaOH and radioactivity was measured in a β scintillation counter. The cpm attached/total cpm added (attaching potential) was determined."}, "MCF-7 cells": {"test_system": "MCF-7 cells", "assay": "Collagen-based invasion assay, MCF-7", "assay_type": "cell-based, human", "conditions": "10% FBS chemoattractant, 72-hour incubation", "protocol": "as §2"}, "[4]": {"test_system": "MCA38cea (human CEA-transfected line) adhesion to HUVEC", "assay": "Endothelial cell adhesion assay, MCA38cea", "assay_type": "cell-based, murine", "conditions": "without antibody 11.68±0.77%", "protocol": "Percentage adhesion of various tumor cells with varying amounts of expressed CEACAM5 and CEACAM6 to HUVEC cells in the absence or presence of MN-15 Fab′, MN-3 Fab′, or Ag8 Fab′ control. Cells were labeled with 1 μCi/mL of ^3H-thymidine and added to HUVEC cultures and incubated for 30 minutes at 37° C. Samples were washed thrice with PBS to remove unattached cells. Attached tumor cells were solubilized with 0.1 N NaOH and radioactivity was measured in a B-scintillation counter. The cpm attached/total cpm added (attaching potential) was determined. Results of a typical study are presented. Cell lines used include BT-20 (CEACAM5+/CEACAM6+), MCF-7 (CEACAM5−/CEACAM6+), HT-29 (CEACAM5−/CEACAM6+), Moser (CEACAM5+/CEACAM6−), MCA38cea (CEACAM5+/CEACAM6−), and MCA38 (CEACAM5−/CEACAM6−).\nEndothelial cell adhesion assay—Human umbilical vein endothelial cells (HUVEC; Cambrex, San Diego, Calif.) were grown in collagen-coated dishes in EGM Media in a humidified atmosphere with 5% CO2 at 37° C. At passages 2 to 5, cells were plated at a density of 4×10^4 cells per well in 96-well plates 24 hours before the assay. Interleukin-1β (IL-1β, 1 ng/mol) was added 4 hours before the assay. […] Attached cells were solubilized with 0.1 N NaOH and radioactivity was measured in a β scintillation counter. The cpm attached/total cpm added (attaching potential) was determined."}, "[5]": {"test_system": "HT-29 cells adhesion to HUVEC", "assay": "Endothelial cell adhesion assay, HT-29", "assay_type": "cell-based, human", "protocol": "as §3"}}, "data": [{"molecule": "MN-15: murine Class I anti-CEA MAb, IgG1 kappa, binds A1B1 domain of CEACAM5 and CEACAM6 (antibody, V domains shown) VL: DIQLTQSPAIMSASPGEKVTMTCSASSRVSYIHWYQQKSGTSPKRWIYGTSTLASGVPARFSGSGSGTSYSLTISSMEAEDAATYYCQQWSYNPPTFGAGTKLELKR VH: EVRLVESGGGLVQGPGSLRLSCAASGFALTDYYMSWVRQSPGKTLEWLGFIANKANGHTTDYSPSVKGRFTISRDNSQTILYLQMNTLRTEDSATYYCARDMGIRWNFDVWGQGTTVTVSS", "values": [{"measurement": "dissociation constant", "setting": "CEA", "value": "nanomolar range"}, {"measurement": "decrease of adhesion to fibronectin", "setting": "[1]", "value": 47, "unit": "%"}, {"measurement": "decrease of adhesion to fibronectin", "setting": "[2]", "value": 51, "unit": "%"}]}, {"molecule": "MN-15 Fab′: monovalent Fab′ fragment of murine MN-15 (antibody, V domains shown) VL: DIQLTQSPAIMSASPGEKVTMTCSASSRVSYIHWYQQKSGTSPKRWIYGTSTLASGVPARFSGSGSGTSYSLTISSMEAEDAATYYCQQWSYNPPTFGAGTKLELKR VH: EVRLVESGGGLVQGPGSLRLSCAASGFALTDYYMSWVRQSPGKTLEWLGFIANKANGHTTDYSPSVKGRFTISRDNSQTILYLQMNTLRTEDSATYYCARDMGIRWNFDVWGQGTTVTVSS", "values": [{"measurement": "reduction in cell invasion", "setting": "ZR75-30 cells", "value": 49, "unit": "%"}, {"measurement": "decrease in adhesion", "setting": "[3]", "value": 41, "unit": "%"}, {"measurement": "reduction in cell invasion", "setting": "MCF-7 cells", "value": 77, "unit": "%"}, {"measurement": "endothelial cell binding", "setting": "[4]", "value": "5.53±1.15", "unit": "%"}, {"measurement": "decrease in adhesion", "setting": "[5]", "value": 48, "unit": "%"}]}]}
